Source: paper PMC13639016

Biological target: QatB (Escherichia coli NCTC9009)
Assay: SEC-MALS

For QatC (enzyme), the stoichiometry N was 1.

In the case of QatD (enzyme), the stoichiometry N is reported as 1.
